± gives the half width of the 95% confidence interval.
Columns and labels:
[1] = folding stability dG unfold (combined trypsin and chymotrypsin); higher = more stable
Method in brief: (§1)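 Unfolding free energy was derived, per protease or combined, by relating Bayesian-fitted K50 values from sequencing counts to a sequence-predicted unfolded-state K50 and a shared folded-state K50. The underlying digests exposed cysteine-free mini-proteins under 80 residues, in a PA-tagged cDNA display construct, to trypsin and chymotrypsin at 11 threefold-diluted concentrations and to a no-protease condition. A filter kept only designs with AlphaFold2 dimer inter-PAE above 15.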

[2] = folding stability dG unfold from trypsin proteolysis; higher = more stable
Method in brief: as §1

[3] = folding stability dG unfold from chymotrypsin proteolysis; higher = more stable
Method in brief: as §1

Sequence	folding stability dG unfold [1] [kcal/mol]	folding stability dG unfold [2] [kcal/mol]	folding stability dG unfold [3] [kcal/mol]
SAYLMFMIPIKNDEITIKIPVPPGYYVRIFVFFPDGMEPRTIPPDEKVKIKIPKPGAWIMIMVYPAEEMSAG [r14_882_TrROS]	4.41 ± 0.14	3.38 ± 0.12	5 ± 0.16
SAYRIEIEIPSPKLAKKLEALLPPNYRIDNVRRNKNDNQVKITVEYDPGMPPSRMRRIHKEIKELIKELSAG [r14_306_TrROS]	1.86 ± 0.18	1.24 ± 0.088	2.24 ± 0.077
SAYYIIIKIENPNDGKPFIIMIPGNNIHIFDPDNGKPVEIEVDGDKIEIKFNNRPVTVKPLEVIPPEAISAG [r14_208_TrROS]	2.15 ± 0.23	1.54 ± 0.11	2.42 ± 0.04
SDDIKNMPFRITEIEPLPPGDPIPPGQRIRITIQMPDFPGQPFEFDIRVDPENGMIYMEMGGMPFEIPIKSA [r9_243_TrROS]	1.67 ± 0.15	1.6 ± 0.019	1.6 ± 0.13
SDEGYKVEINPMIHRTDGKVTIMFMIQIKPGLDDLKIKIKLRLPDGKPMKVDYQRNPDNGFIMVSATMPPSA [r9_159_TrROS]	3.53 ± 0.14	2.91 ± 0.1	4.21 ± 0.066
SDETVELPTVYTLYFGKDGTPRYYITVTLGDGPVAMELPEVSPDVKDGDVVPVKVPSSVVTSYSVSSAPASA [r9_769_JUSTAS]	0.808 ± 0.059	0.671 ± 0.071	0.777 ± 0.096
SDKLAKLLEDELEKAGYEVVSVEVRYDPEKGLLYVNALVRRKDDPTWYRVRAVYNPETDELLEVKIEPLPSA [r9_814_TrMRF]	> 6	5.58 ± 0.21	6.29 ± 0.11
SDKVVIHFYPGMPVSNIVERVADNPDMTIEIVMPPGMKPSWYNYIRKALRDANIPKDQKVEIEWVPYDDMSA [r9_670_TrROS]	3.59 ± 0.081	3.11 ± 0.12	3.92 ± 0.042
SEAEVEVEVLPGPDAVVVRVRLPGRDEVVELRVLDPHPGEGRVLVAVSPGDDDTVVVRDLSPEDIKALLASA [r9_1221_TrMRF]	1.5 ± 0.056	1.843 ± 0.018	0.973 ± 0.055
SEAKTMSPEELKEFIEEYIEEERKKNPGKPVRIAIEDLKEKFPGFSPEELKKLLGLSEEELENGAIEIEPSA [r9_525_TrMRF]	2.22 ± 0.24	1.81 ± 0.087	2.38 ± 0.11
SEEIIKALEEAGYEVESIEYDEETKTVTITIYRKNKETGKIEKKTITIEVEPGMTEEELLALARELLEKESA [r9_184_TrROS_Hall]	4.83 ± 0.66	4.77 ± 0.93	4.71 ± 0.31
SEETLRILIRDPATGELREIEVRAGETVTVTFPDGSTVTLRITVVAAPPPPPKTVTLDPNETVEEGETVLSA [r9_467_TrROS_Hall]	2.1 ± 0.092	2.24 ± 0.084	1.9 ± 0.038
SEEVEIEIRIRVEVDSLEEARALAEALEELGFEVEVKVVERDGKLVVEVTIRIRVPAPPPPPLSEEELKASA [r9_863_TrROS_Hall]	2.17 ± 0.19	2.49 ± 0.11	1.55 ± 0.14
SEFELKIEEEEDPATGVLRVTVTFNTSLEDAKEKLKELLKESGLNAVIKSVEEKKVGPEVTITFEIEIPPSA [r9_164_JUSTAS]	3.05 ± 0.057	2.71 ± 0.065	3.27 ± 0.052
SEKIKELIKKLAEELNLKIVKIEKKEDGKIIIEFENGIKIEIEIDPEKKNKIKIKIEKTKNGKLKITIEPSA [r9_809_TrROS_Hall]	2.24 ± 0.12	1.67 ± 0.11	2.65 ± 0.14
SEKIVIEFPNPEEATVELIKSIIKPYLEPGEKVKIKVFSKDGKPLFEKELEFNEVEEVPKEKDYLIVIEKSA [r9_264_TrMRF]	1.14 ± 0.21	0.97 ± 0.076	1.3 ± 0.1
SEKPLVTLELELVVETEEQARAAVEALLAALPEEEIVDIRVEVEEVDVFENGELVGRRRRVRVTIVVRRPSA [r9_605_TrROS_Hall]	4.41 ± 0.25	4.31 ± 0.24	4.06 ± 0.26
SEKTVLSSSTSTSPTSITTTTTVKLPDGSLITTTTTYSSVTAAPTPAPGGTLVPTYSLPTTTTTTTLPPASA [r9_240_JUSTAS]	0.63 ± 0.11	0.845 ± 0.025	0.309 ± 0.13

Sequence	folding stability dG unfold [1] [kcal/mol]	folding stability dG unfold [2] [kcal/mol]	folding stability dG unfold [3] [kcal/mol]
SEMSVEEILKKIAEELLKKNPNKEVTKEIEIEFEKPDPEGKRLLKEKVKATIKVTPDKIEILSESREILLSA [r9_361_JUSTAS]	1.31 ± 0.18	1.52 ± 0.066	1.07 ± 0.054
SEPRYHVEIRLPVLLVVPPELLEPDPERDSYRLPEDDLPVHPDAVIPREVTFSGPMTAEEVVRRTLALLSSA [r9_165_TrMRF]	1.04 ± 0.085	0.455 ± 0.11	1.38 ± 0.13
SEPWELVEERELPPNAVITFPNGEKLEIDPEKARVRVWRRPDSVRVLVVLKDGTVLEFEFYAPPRVTDDDSA [r9_348_TrMRF]	2.69 ± 0.1	2.62 ± 0.074	2.58 ± 0.033
SERLKLKITIKNANGETYEVEIEFDLETNELTIKVKPVPALPPVTEKRVVKKDGKLVEETRTVLLSEEDLSA [r9_587_TrROS_Hall]	1.74 ± 0.38	1.02 ± 0.16	1.83 ± 0.1
SETETITVEVTMPAEELANMSAEELAARLREAFPDLKITSISITVEEVEDPETGERLVRVTVTITVERVPSA [r9_1189_TrROS_Hall]	4.31 ± 0.15	4.28 ± 0.11	3.4 ± 0.068
SETITLEIELPDGSKLTIEIPVEKIPGVDEYVVTVKITEYLPNGKPRSREFTFLAKSPEEAVEIALLAAGSA [r9_337_TrMRF]	5.57 ± 0.21	4.7 ± 0.24	5.57 ± 0.16
SETYKVTVLAEVRIYSRSPDGTWKPIGVFPVEATVEYPAEYREEAERKAVEKVEEEVRKFAESHGVVVEASA [r9_356_TrMRF]	1.91 ± 0.16	1.57 ± 0.043	2.31 ± 0.13
SEVKLEVEEEEDGTLRVRLEVKLTREDGREVTRELELELTIELPPVEFETEEERRAALERLLEELEKLLESA [r9_790_TrROS_Hall]	3.52 ± 0.13	3.18 ± 0.075	3.89 ± 0.18
SEYSRIEFEDYTVLVVKKTLPNGKPLYLVRLYRKEDPKVDPVEVDSPEEAEEAVKELLKKHLPGEEVEKESA [r9_749_TrMRF]	3.08 ± 0.15	2.3 ± 0.11	3.3 ± 0.033
SFEIEILDVDPDGWIVITIRYPSPDGKPLTPEEMEEIAEEIALELFPQFPDFKVTIEHDPESGTITIVIRSA [r9_485_TrROS]	4.15 ± 0.43	4.25 ± 0.35	3.59 ± 0.3
SFRIMASYDPDYGTITVYVQFQDPDNGEPIPAEEIAKEIAEQFPGAKIDDIEPNPDGWFKIEIKVPPGAFSA [r9_87_TrROS]	2.46 ± 0.19	2.19 ± 0.077	2.55 ± 0.044
SGEFKPIATIDAKDGKPEAIIDSVKELLPDSGPVLVVLDLPDGPPKVNVIDPSTGKVREFVPGGNITIVPSA [r9_853_TrMRF]	1.03 ± 0.056	0.355 ± 0.037	1.39 ± 0.021
SGEIIGEQTFPVEDGGKVPVKIYKNPGNLYAEVFNDDDKPIQEQEIPPDDDLEDIENIKLPPGAWVRIYWSA [r9_215_TrROS]	0.433 ± 0.3	0.205 ± 0.14	0.368 ± 0.39
SGISNEEIKKILEEIAKEYPGLKIEIKPGTEPSVAKGPKAVVTLTRKPGYLEITITFPETGETTTIPIPPSA [r9_1062_JUSTAS]	2.64 ± 0.043	2.51 ± 0.072	2.721 ± 0.02
SGKVKVKVEIPIPFRPPDGKWMMMNIWVEAEVPVTPEDLNNGKPRIRPEALDEAKDKVREWMRDIFGEPISA [r9_629_TrROS]	1.45 ± 0.13	1.03 ± 0.052	1.74 ± 0.11
SGLAPGEVVPEKFEREITDPETGKKYKVEVTTEIAPENPVRRVTVTTTPPDGTTTTTEEVIPPGEEYTLESA [r9_88_JUSTAS]	0.468 ± 0.077	-0.889 ± 0.27	0.867 ± 0.092
SGLLEKFLKEAEEWIKKLGLKVKPGEKVEIPIPFENNLIAKIEFYPGEKIIKVVLIGENKPVEYKFKIEKSA [r9_426_TrMRF]	1.88 ± 0.45	1.53 ± 0.16	2.32 ± 0.17
SGLVEAIAKALGAESVTPHPDGTFSLRLKDGSYLKIKVEVLEVRERPDGSPEFIVKIEIEVFEGGKPEDESA [r9_648_TrMRF]	> 6	4.56 ± 0.14	5.94 ± 0.065
